Results taken from the Immune Epitope Database (IEDB).

Assays:
HLA-A*26:01 = experiment: IEDB peptide-MHC binding, purified MHC/competitive/radioactivity; filed as Kd, often an IC50 or EC50 that approximates it; ≥ and ≤ were set here for values at or beyond the usual limits of such assays
HLA-A*29:02 = experiment: as above
HLA-A*30:02 = experiment: as above
HLA-A*01:01 = experiment: as above
HLA-A*24:02 = experiment: as above
HLA-A*23:01 = experiment: as above
HLA-B*51:01 = experiment: as above; conditions: source organism: Dengue virus 1 Brazil/97-11/1997
HLA-B*07:02 = experiment: as above
HLA-B*58:01 = experiment: IEDB peptide-MHC binding, purified MHC/direct/fluorescence; filed as Kd, often an IC50 or EC50 that approximates it; ≥ and ≤ were set here for values at or beyond the usual limits of such assays; conditions: source organism: Salmonella enterica subsp. enterica serovar Typhimurium
HLA-A*69:01 = experiment: as above
HLA-A*02:01 = experiment: as above
HLA-B*15:01 [1] = experiment: as above; conditions: source organism: Salmonella enterica subsp. enterica serovar Typhimurium
HLA-B*44:02 = experiment: IEDB peptide-MHC binding, purified MHC/competitive/radioactivity; filed as Kd, often an IC50 or EC50 that approximates it; ≥ and ≤ were set here for values at or beyond the usual limits of such assays
HLA-B*15:01 [2] = experiment: IEDB peptide-MHC binding, purified MHC/competitive/fluorescence; filed as Kd, often an IC50 or EC50 that approximates it; ≥ and ≤ were set here for values at or beyond the usual limits of such assays; conditions: source organism: Yersinia pestis Antiqua
HLA-B*44:03 = experiment: IEDB peptide-MHC binding, purified MHC/competitive/radioactivity; filed as Kd, often an IC50 or EC50 that approximates it; ≥ and ≤ were set here for values at or beyond the usual limits of such assays
HLA-B*27:05 = experiment: IEDB peptide-MHC binding, purified MHC/direct/fluorescence; filed as Kd, often an IC50 or EC50 that approximates it; ≥ and ≤ were set here for values at or beyond the usual limits of such assays; conditions: source organism: Mammarenavirus juninense
[3] = source organism: SARS coronavirus Tor2
[4] = source organism: Dengue virus 1 Brazil/97-11/1997
[5] = source organism: Mammarenavirus machupoense
[6] = source organism: Salmonella enterica subsp. enterica serovar Typhimurium
[7] = source organism: Dengue virus 2 Jamaica/1409/1983
[8] = source organism: Dengue virus 3 Martinique/1243/1999
[9] = source organism: Hyphomonas neptunium

Row | Sequence | Kd (HLA-A*26:01; [3]) [nM] | Kd (HLA-A*29:02; [3]) [nM] | Kd (HLA-A*30:02; [3]) [nM] | Kd (HLA-A*01:01; [3]) [nM] | Kd (HLA-A*24:02; [3]) [nM] | Kd (HLA-A*23:01; [3]) [nM] | also measured
1 | PYNSVTDTI | ≥ 77900 | 6820 | ≥ 81100 | ≥ 78100 | 7.16 | 20.3 | –
2 | TPQDNQLAYV | – | – | – | – | – | – | Kd (HLA-B*51:01): 14600 nM; Kd (HLA-B*07:02; [4]): 330 nM
3 | IDATSTGNY | 1050 | 447 | 8590 | 3720 | ≥ 73800 | ≥ 77800 | –
4 | KTIVESCGNY | 1350 | 844 | 1.69 | 240 | ≥ 70300 | ≥ 70000 | –
5 | LCMLNNSLYY | – | – | – | – | – | – | Kd (HLA-A*26:01; [5]): ≥ 69700 nM; Kd (HLA-A*29:02; [5]): 7.19 nM; Kd (HLA-A*30:02; [5]): 181 nM; Kd (HLA-A*01:01; [5]): 367 nM; Kd (HLA-A*24:02; [5]): ≥ 55200 nM; Kd (HLA-A*23:01; [5]): ≥ 40400 nM
6 | ELSPRWYFY | 15.7 | 70.3 | 790 | ≥ 35000 | 13200 | 10600 | –
7 | LGYPFAWFL | – | – | – | – | – | – | Kd (HLA-B*58:01): 102 nM; Kd (HLA-A*69:01; [6]): 307 nM; Kd (HLA-A*02:01; [6]): 831 nM
8 | GLIEEMASA | – | – | – | – | – | – | Kd (HLA-B*15:01 [1]): 4500 nM; Kd (HLA-A*69:01; [6]): ≥ 20900 nM; Kd (HLA-A*02:01; [6]): 20 nM
9 | KDLISYGGGW | – | – | – | – | – | – | Kd (HLA-B*44:02; [7]): 310 nM
10 | AMQKESDDY | ≥ 65300 | 15500 | 126 | 2740 | ≥ 77600 | ≥ 77800 | –
11 | YSNRNRFLY | 1470 | 0.588 | 0.453 | 2.9 | 3040 | 5690 | –
12 | TPMLRHSIEN | – | – | – | – | – | – | Kd (HLA-B*07:02; [7]): 507 nM
13 | FSQEEAKLF | – | – | – | – | – | – | Kd (HLA-B*15:01 [2]): 2480 nM
14 | LYIIKLVFLW | 1170 | ≥ 31800 | ≥ 85700 | 13600 | 20.9 | 0.165 | –
15 | EEHNSTWHY | – | – | – | – | – | – | Kd (HLA-B*44:03; [8]): 68.1 nM; Kd (HLA-B*44:02; [8]): 15.3 nM
16 | LPVCAPSSA | – | – | – | – | – | – | Kd (HLA-B*07:02; source organism: Hepatitis B virus): 115 nM
17 | RELKCGSGIF | – | – | – | – | – | – | Kd (HLA-B*44:03; [4]): 151 nM; Kd (HLA-B*44:02; [4]): 54.8 nM
18 | RRGLSQFTQ | – | – | – | – | – | – | Kd (HLA-B*27:05): ≥ 20000 nM
19 | FYAYLRKHF | ≥ 77900 | ≥ 46000 | ≥ 125000 | ≥ 78100 | ≥ 31800 | ≥ 23900 | –
20 | ALTPPFHPY | – | – | – | – | – | – | Kd (HLA-A*69:01; [9]): ≥ 20000 nM; Kd (HLA-A*02:01; [9]): 9000 nM
21 | AMGKPVPYCY | ≥ 49400 | 89.5 | 1.1 | 1990 | ≥ 70300 | ≥ 70000 | –
22 | FTSCELYHY | 811 | 3.57 | 365 | 1.73 | ≥ 35800 | ≥ 38100 | –
